This note sets out measurements from patent US20130122005A1 (published 2013).

Common to all, as to assay: cell-based or functional assay
Experiment [1] concerns the target T1, human IGF-1 (human, UniProt P05019 49-118).
Experiment [2] addresses T2, human IGF-2 (human, UniProt P01344 25-91).
Experiment [3] deals with T1, human IGF-1. This is another data set of the same source.
The target of experiment [4] is T2, human IGF-2. This is another data set of the same source.
Experiment [5] addresses T2, human IGF-2. This is another data set of the same source.

T2 sequence (P01344 25-91 limits assumed): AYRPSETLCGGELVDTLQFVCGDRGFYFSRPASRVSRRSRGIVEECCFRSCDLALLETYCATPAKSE
T1 sequence (P05019 49-118): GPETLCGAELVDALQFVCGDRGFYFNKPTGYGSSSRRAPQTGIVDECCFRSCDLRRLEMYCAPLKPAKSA

B1: antibody 60814 (antibody, human IgG1, lambda, V domains shown)
VH: QVELVESGGGLVQPGGSLRLSCAASGFTFSNYWMHWVRQAPGKGLEWVSGISGWSSWTYYADSVKGRFTISRDNSKNTLYLQMNSLRAEDTAVYYCARFGIDAYTKVYFDYWGQGTLVTVSS
VL: DIELTQPPSVSVAPGQTARISCSGDNIPLKYVSWYQQKPGQAPVLVIHDDNKRPSGIPERFSGSNSGNTATLTISGTQAEDEADYYCSSWDTLDIFNVFGGGTKLTVLG
On to B1, for which, in experiment [1], the “IC50, IGF-1 induced COLO-205 cell proliferation” value came out at 0.135 µg/mL and the “IC50, IGF-1 induced MCF7 cell proliferation” value was 0.0241 µg/mL. Also, in experiment [2], the “IC50, IGF-2 induced COLO 205 cell proliferation” value was 0.576 µg/mL and the “IC50, IGF-2 induced MCF7 cell proliferation” value amounted to 0.0782 µg/mL.

B2: antibody 60819 (antibody, human IgG1, lambda, V domains shown)
VH: QVELVESGGGLVQPGGSLRLSCAASGFTFSNYWMHWVRQAPGKGLEWVSGISGWSSWTYYADSVKGRFTISRDNSKNTLYLQMNSLRAEDTAVYYCARFGIDAYTKVYFDYWGQGTLVTVSS
VL: DIELTQPPSVSVAPGQTARISCSGDNIPLKYVSWYQQKPGQAPVLVIHDDNKRPSGIPERFSGSNSGNTATLTISGTQAEDEADYYCQSYDYFPKFVVFGGGTKLTVLG
Turning to B2, in experiment [1], the “IC50, IGF-1 induced COLO-205 cell proliferation” value stood at 0.217 µg/mL and the “IC50, IGF-1 induced MCF7 cell proliferation” value came out at 0.054 µg/mL. Moreover, in experiment [2], the “IC50, IGF-2 induced COLO 205 cell proliferation” value was found to be 0.101 µg/mL and the “IC50, IGF-2 induced MCF7 cell proliferation” value turned out to be 0.0408 µg/mL.

B3: antibody 60833 (antibody, human IgG1, lambda, V domains shown)
VH: QVELVESGGGLVQPGGSLRLSCAASGFTFTSYWMSWVRQAPGKGLELVSSITSYGSFTYYADSVKGRFTISRDNSKNTLYLQMNSLRAEDTAVYYCARNMYTHFDSWGQGTLVTVSS
VL: DIVLTQPPSVSGAPGQRVTISCSGSSSNIGSNSVSWYQQLPGTAPKLLIYDNSKRPSGVPDRFSGSKSGTSASLAITGLQSEDEADYYCQSRDTYGYYWVFGGGTKLTVLG
Take B3: in experiment [1], the “IC50, IGF-1 induced COLO-205 cell proliferation” value amounted to 0.165 µg/mL and the “IC50, IGF-1 induced MCF7 cell proliferation” value turned out to be 0.0386 µg/mL. In experiment [2], the “IC50, IGF-2 induced COLO 205 cell proliferation” value came to 0.632 µg/mL and the “IC50, IGF-2 induced MCF7 cell proliferation” value came out at 0.0812 µg/mL. The “IC50, IGF-1 (20 ng/mL) induced IGF-1R phosphorylation, cell-based ELISA” value in experiment [3] worked out at 0.09 µg/mL. In experiment [4], the “IC50, IGF-2 (100 ng/mL) induced IGF-1R phosphorylation, cell-based ELISA” value is 1.12 µg/mL. The “IC50, IGF-2 (100 ng/mL) induced IR-A phosphorylation, cell-based ELISA” value in experiment [5] stood at 0.82 µg/mL.
